Blank lines part the entries; values can stand above or below the binder they belong to.
How the values were obtained:
human CXCL13 [1] = biological target: T1, human CXCL13 (human, UniProt O43927 23-109); test: ELISA, coated antigen, chimeric IgG1
T1 construct: also called huCXCL13; rhCXCL13
T1 sequence (looked up): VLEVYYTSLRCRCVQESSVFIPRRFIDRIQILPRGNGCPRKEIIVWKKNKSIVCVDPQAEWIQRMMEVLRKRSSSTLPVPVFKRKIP
Method: (§1) Elisa based binding assay. […] Briefly, 100 μl of human CXCL13 or cynomolgus CXCL13 was coated at 0.5 μg/ml overnight and then blocked by 200 μl of 5% BSA in PBS. Serial diluted antibodies were incubated with the coated antigen for 30 min at RT. The resulting plates were washed with PBS/T and incubated with goat anti-human IgG Fc-HRP for 30 min RT. The plates were developed with TMB substrate after washing with 1×PBST for 5 times and reaction stopped with 1N HCl and analyzed by spectrophotometer at OD 450-630 nm.

cynomolgus CXCL13 = biological target: T2, cynomolgus CXCL13 (cynomolgus, UniProt H6WS58 23-109); test: ELISA, coated antigen, chimeric IgG1
T2 construct: also called cynoCXCL13; Cyno CXCL13
T2 sequence: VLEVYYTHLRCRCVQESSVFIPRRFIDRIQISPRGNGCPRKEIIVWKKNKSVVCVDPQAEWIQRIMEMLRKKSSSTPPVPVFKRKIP
Method: as §1

human CXCL13 [2] = biological target: T1, human CXCL13; test: cell-based blocking ELISA, CXCL13 to CHO-K1-CXCR5
In short: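 Fixed CHO-K1-CXCR5 cells received antibodies (3-fold dilutions from 50 μg/ml) pre-incubated 30 min at RT with equal volume of 0.3 μg/ml human CXCL13, then 30 min on cells. Bound CXCL13 captured with 3 μg/ml Mab5261 and detected by anti-human Fc-HRP, absorbance 450.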

human CXCL13 [3] = biological target: T1, human CXCL13; test: ELISA, huCXCL13 coated on the plate, chimeric IgG1 titrated, OD450
In short: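 EC50 values were obtained by titrating the antibodies. For this, IgG1 antibodies in serial dilution were bound for 30 min at room temperature to plates that had been coated overnight with human CXCL13 (100 μl at 0.5 μg/ml) and blocked with 200 μl 5% BSA in PBS. Detection used goat anti-human IgG Fc-HRP for 30 min at room temperature.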

human CXCL13 [4] = biological target: T1, human CXCL13; test: cell-based blocking assay, CXCL13 to CXCR5 cells
In short: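 CHO-K1 cells expressing CXCR5 were plated at 5×10⁴/well overnight at 37° C, fixed with 2% PFA and blocked with 1% BSA in PBST. Serially diluted humanized Fabs were mixed with an equal volume of human CXCL13 at 0.3 μg/ml and pre-incubated for 30 min at room temperature, and 100 μl of each mix was added to the cells for 30 min. After three PBST washes, bound CXCL13 was captured with 3 μg/ml of a human anti-CXCL13 antibody, detected with anti-human Fc-HRP and read at 450 nm. IC50 was derived from the titration.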

human CXCL13 [5] = biological target: T1, human CXCL13; test: SPR Biacore, off-rate ranking of Fabs
human CXCL13 F20A [6] = biological target: T3, human CXCL13 F20A (human, UniProt O43927 23-109); test: alanine scan, flow cytometry
T3 construct: mature; 87 residues fits the mature chain
T3 sequence (looked up): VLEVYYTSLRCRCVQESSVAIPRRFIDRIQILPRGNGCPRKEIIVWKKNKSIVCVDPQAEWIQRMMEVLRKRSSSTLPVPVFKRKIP
Method: (§2) Cells were transfected with different WT construct or […] mutant construct which each amino acid was mutant to alanine, totally 87 amino acids. Then, binding of the test Fab to each mutant clone in the alanine scanning library was determined, in duplicate, by high-throughput flow cytometry. For each point, background fluorescence was subtracted from the raw data, which were then normalized to Fab reactivity with WT target protein. For each mutant clone, the mean binding value was plotted as a function of expression (represented by control reactivity). To identify preliminary primary critical clones (red circles), a threshold (dashed lines) of >70% WT binding to control Ab and <20% WT binding to test Fab was applied.

human CXCL13 F20A [7] = biological target: T3, human CXCL13 F20A; test: alanine scan, flow cytometry on transfected cells
Method: as §2
(§3) We draw the crystal structure diagram in the FIG. 8B, and the critical residues for 64C10G1 Fab binding were visualized and shown on this crystal structure.

human CXCL13 F25A = biological target: T4, human CXCL13 F25A (human, UniProt O43927 23-109); test: alanine scan, flow cytometry on transfected cells
T4 construct: mature; 87 residues fits the mature chain
T4 sequence (looked up): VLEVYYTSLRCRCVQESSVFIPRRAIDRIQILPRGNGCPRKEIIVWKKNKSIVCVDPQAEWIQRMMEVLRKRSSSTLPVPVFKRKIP
Method: as §2, §3

human CXCL13 R24A = biological target: T5, human CXCL13 R24A (human, UniProt O43927 23-109); test: alanine scan, flow cytometry on transfected cells
T5 construct: mature; 87 residues fits the mature chain
T5 sequence (looked up): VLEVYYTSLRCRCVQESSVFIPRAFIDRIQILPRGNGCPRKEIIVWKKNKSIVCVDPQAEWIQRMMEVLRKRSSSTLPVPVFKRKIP
Method: as §2, §3

human CXCL13 P22A = biological target: T6, human CXCL13 P22A (human, UniProt O43927 23-109); test: alanine scan, flow cytometry on transfected cells
T6 construct: mature; 87 residues fits the mature chain
T6 sequence (looked up): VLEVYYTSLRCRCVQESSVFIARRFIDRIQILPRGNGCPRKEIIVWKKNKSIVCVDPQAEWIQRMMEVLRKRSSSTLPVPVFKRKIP
Method: as §2, §3

human CXCL13 [8] = biological target: T1, human CXCL13; test: SPR Biacore 8K, Fab over immobilised CXCL13
In short: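 Surface plasmon resonance: CXCL13 amine-coupled to CM5 chip at ~250 RU, humanized Fabs injected at 0–20 nM, 30 μl/min, in HEPES-buffered saline with EDTA and Tween-20, pH 7.4. Dissociation 600 s; regeneration with glycine-HCl pH 2.0.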

human CXCL13 [9] = biological target: T1, human CXCL13; test: ELISA binding, Fab
human CXCL13 [10] = biological target: T1, human CXCL13; test: SPR Biacore 8K, Fab over immobilised CXCL13; remark: listed apart in the source
Method: HuCXCL13 binding affinity by Surface Plasmon Resonance. 411A11E9, 415A3D1, 64C10G1, 21H12D9, 329F2E1, 71F4A3 were selected to produce Fab and tested binding affinity. The binding of the antibodies to huCXCL13 was examined by Biacore 8K. 10 mM HEPES, 150 mM NaCl, 3 mM EDTA, 0.05% Tween-20, pH 7.4 served as running buffer and 10 mM glycine-HCl, pH2.0 served as regeneration buffer. CXCL13 protein was immobilized on Sensor Chip CM5 using amine coupling method (immobilization level ˜30RU). The serial concentrations of Fab (0-16 nM) were injected over immobilized CXCL13 at the flow rate of 30 μl/min. The dissociation phases were 600s.

human CXCL13 [11] = biological target: T1, human CXCL13; test: SPR Biacore T200
Method: To further optimization of 71F4-B, each Mutations in 71F4A3 useful for improving binding (Kon) were added into 71F4-B, the sequences were listed in Table 28. Antibodies according to these sequences were generated and affinity testing was performed by Biacore T200.

human CXCL13 [12] = biological target: T1, human CXCL13; test: SPR Biacore T200; remark: listed apart in the source
human CXCL13 [13] = biological target: T1, human CXCL13; test: SPR Biacore T200; remark: listed apart in the source
Method: In the second approach, mutations were carried out by multiple libraries including 4 different sub libraries, such as saturated mutation libraries by CDR walking for CDR L1, CDR L3, CDR H3 or CDR L2, CDR H1, CDR H2 and saturated mutation libraries by three aa mutated continuously for CDR H3 or CDR L3. After finishing construction of phage sub libraries, antigen CXCL13 screening followed. Antibodies of these sequences were generated, and affinity testing was performed by Biacore T200. To further optimize the antibodies, the lead clones were then back mutated to its humanized counterpart one aa by one aa. Sequences were generated and synthesized for antibodies. Affinity was tested by Biacore T200.

EC50 (human CXCL13 [1]): 0.0381 µg/mL
EC50 (cynomolgus CXCL13): 0.0814 µg/mL
IC50 (human CXCL13 [2]): 3.02 µg/mL
EC50 (human CXCL13 [3]): 0.116 nM
B1: 71F4A3 chimeric human IgG1 antibody (antibody, V domains shown)
VH: EVKLLQSGGGLVQPGGSLKLSCAASGIDFSRYWMSWVRRAPGKGLEWIGEINPDSSTINYAPSLKDKFIISRDNAKNTLYLQMSKVRSEDTALYYCARQDDYEYYAMDYWGQGTSVTVSS
VL: DIVMTQSHKSMSTSVGDRVSITCKASQDVNTGVAWYRQKPGQSPKLLIYSASYRYTGVPDRFTGSGSGTDFTFTISSVQAEDLAVYYCQQYYSTPLTFGAGTKLELK
notes: Chimeric human IgG1; also called chimeric 71F4A3

IC50 (human CXCL13 [4]): 7.22 nM
Kd (human CXCL13 [5]): 0.814 nM
koff (human CXCL13 [5]): 0.00218 s⁻¹
kon (human CXCL13 [5]): 2.68e+06 M⁻¹ s⁻¹
binding result (human CXCL13 F20A [6]): no binding (tested: <20% WT binding)
Binding reactivity (% WT) (human CXCL13 F20A [7]): 9.4 % WT
Binding reactivity (% WT) (human CXCL13 F25A): -3.2 % WT
Binding reactivity (% WT) (human CXCL13 R24A): -3.3 % WT
Binding reactivity (% WT) (human CXCL13 P22A): 14.8 % WT
Kd (human CXCL13 [8]): 0.814 nM
koff (human CXCL13 [8]): 0.00218 s⁻¹
kon (human CXCL13 [8]): 2.68e+06 M⁻¹ s⁻¹
EC50 (human CXCL13 [9]): 1.71 nM
Kd (human CXCL13 [10]): 0.178 nM
koff (human CXCL13 [10]): 0.0005 s⁻¹
kon (human CXCL13 [10]): 2.81e+06 M⁻¹ s⁻¹
B2: 64C10G1 chimeric Fab (Fab, V domains shown)
VH: EVQLVESGGGLVKPGGSLKLSCAASGFTFSSYAMSWVRQTPEKRLEWVATISDGGSDAYYPDNVKGRFTISRDNAKNNLYLQMSHLKSEDTAMYYCARDYYGSGYEDSPMDYWGQGTSVTVSS
VL: DIQMTQSPSSLSASLGGKVTITCKASQDINKYIAWYQHKPGKGPRLLIHYTSTLQPGIPSRFSGSGSGRDYSFSISNLEPEDFATYYCLQYDNLYTFGGGTKLEIK
notes: Fab; also called 64C10G1 Fab

Kd (human CXCL13 [11]): 0.36 nM
koff (human CXCL13 [11]): 6.59e-05 s⁻¹
kon (human CXCL13 [11]): 183000 M⁻¹ s⁻¹
Kd (human CXCL13 [12]): < 1 nM
Kd (human CXCL13 [13]): 0.195 nM
koff (human CXCL13 [13]): 3.57e-05 s⁻¹
kon (human CXCL13 [13]): 183000 M⁻¹ s⁻¹
B3: 71F4-B (antibody, V domains shown)
VH: EVQLVESGGGLVQPGGSLRLSCAASGIDFSRYWMSWVRQAPGKGLEWVAEINPESSTINYAPSLKDRFTISRDNAKNSLYLQMNSLRAEDTAVYYCARQDDYEYYTMDYWGQGTTVTVSS
VL: DIQMTQSPSSLSASVGDRVTITCKVSQDVNTGVAWYQQKPGKAPKLLIYSASYRYTGVPSRFSGSGSGTDFTFTISSLQPEDIATYYCQQYYSTPLTFGGGTKLEIK
notes: also called 71F4A3-B

— patent US20210284724A1 (I MAB BIOPHARMA US, published 2021)
